This note sets out measurements from patent US20250326826A1 (CENTRO DE INGENIER A GEN TICA Y BIOTECNOLOG A, published 2025).

As a reminder, the EC50 is the concentration giving half of the maximal effect. In general, IC50 refers to the concentration needed to halve the response being measured.

Read-outs that look alike come from different tables or passages of the source.

For assay [1], the target named is VEGF (soluble stimulus added to cell cultures). Nature of the assay: cell-based or functional assay.
Assay [2] deals with bFGF (soluble stimulus added to cell cultures). Nature of the assay: cell-based or functional assay.
In assay [3] the target is VEGF (soluble stimulus added to cell cultures). The assay can be described thus: cell-based or functional assay. This is another data set of the same source.
Assay [4] addresses Human VEGF (dendritic cell assay) (human, UniProt P15692-4 27-191, limits assumed). Nature of the assay: cell-based or functional assay.
Assay [5] concerns the target T1, GST-hVEGF121 (human, UniProt P15692-9 27-147).
T1 construct: plate coating of the VEGF ELISAs; also called human VEGF; not shown: glutathione S-transferase (GST) fusion partner
T1 sequence (looked up): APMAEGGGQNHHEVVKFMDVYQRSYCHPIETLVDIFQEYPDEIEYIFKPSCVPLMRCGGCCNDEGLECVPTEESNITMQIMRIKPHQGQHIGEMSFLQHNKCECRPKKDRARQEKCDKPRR
The assay can be described thus: ELISA, coated GST-hVEGF. The protocol:
(§1) The 96-well plates were coated with 100 μL/well of a solution of GST-hVEGF121, GST-mVEGF120, or GST at a concentration of 20 μg/mL, or with a solution of VEGFKDR- at a concentration of 10 μg/mL, or hFGF-2 or mFGF-2 at a concentration of 5 μg/mL in 1×PBS for 16 hours at 4° C. After the plates were blocked with PBS-5% skim milk for one hour, 1:2 serial dilutions of the purified VHHs were added, starting at 2 μg/mL in PBS-0.5% skim milk. The plates were incubated for 1 hour at 37° C. and after several washes, the monoclonal antibody 9E10, specific for c-myc, was added. After one hour of incubation at 25° C. the plates were washed thoroughly. The binding of the fragment to the antigen in the solid phase was detected by the peroxidase activity using 100 μL/well of TMB. The reaction was stopped with 50 μL/well of stop solution, and absorbance values at 450 nm were determined in a microtiter plate reader.
(In general: An ELISA detects its analyte on a solid surface through an enzyme-linked reagent.)

The target of assay [6] is T2, Recombinant human bFGF (human, UniProt P09038 143-288, limits assumed).
T2 construct: Bought (Sigma); also called hFGF-2; human basic fibroblast growth factor
The assay can be described thus: ELISA, coated human bFGF. The protocol: as §1
SEQ ID NO: 18 and SEQ ID NO: 19, and the bivalent Nb-VV6 and Nb-FF2, with sequences identified as SEQ ID NO: 20 and SEQ ID NO: 21, were expressed and purified as described in the Example 1. In all cases, the purity and identity of the proteins were verified by SDS-PAGE 12% and anti-polyhistidine Western Blot. […] The experimental mass of the polypeptides and the arrangement of the disulfide bridges were checked by ESI/MS-MS. The experimental and theoretical mass, for each polypeptide coincided, with errors less than 0.0015% in all cases, and the formation of intramolecular bridges between C22-C101 and C168-C247 was verified. […] The biological activity of the polypeptides was evaluated by ELISA for recognition of the VEGF and bFGF antigens, and by their ability to displace VEGF and bFGF binding to their respective VEGFR2 and FGFR1 receptors. […] Similarly, it was shown that the ability to displace the binding of antigens by their receptors was not affected.

The target of assay [7] is T2, Recombinant human bFGF. Nature of the assay: competition ELISA, coated bFGF, competitor Fc-FGFR1. The protocol:
(§2) The ability of VHHs to hinder receptors for binding to their ligand was assessed by ELISA, for which 96-well plates (NUNC, USA) were coated with GST-hVEGF or bFGF and blocked as described in the previous section. Serial 1:2 dilutions of the purified VHHs, from […] to […], were added and the plates and incubated for 1 h at 37° C. In this step, some wells were left where only PBS-milk was added. […] After 45 min incubation at 37° C., plates were washed with PBS-0.05% Tween. To detect receptor binding, HRP-conjugated anti-human IgG antibody was added, diluted 1:5000 in PBS-0.5% milk. After incubation for 1 h at 37° C., the plates were washed with PBS-Tween, and TMB was added. The reaction was stopped after 10 min. Wells incubated with the receptors without the addition of the antibody fragments were taken as reference for maximum binding in the absence of competitor. In this assay, in the case of inhibition of the VEGF/VEGFR axis, the CIGB166a antibody fragment was used as a positive control, and an anti-FGF polyclonal antibody was used for the FGF/FGFR axis. The percentage of inhibition of receptor binding to its ligand was calculated as follows: […]

Assay [8] concerns the target T1, GST-hVEGF121. The assay can be described thus: competition ELISA, coated GST-hVEGF, competitor Fc-VEGFR2. The procedure:
as §2
The biological effect of VEGF is a consequence of its binding to two fundamental receptors (VEGFR1 and VEGFR2), so for a polypeptide that binds to VEGF to be effective in the therapeutic setting, it must block these interactions (Shibuya, Cell Structure and Function, 2001: 26: 25-35). The ability of Nb-V1 to compete with receptors 1 and 2 for binding to its ligand (VEGF) was assessed by solid phase ligand competition ELISA, as described above.

The target in assay [9] is T1, GST-hVEGF121. Nature of the assay: ELISA, coated GST-hVEGF. The source holds these as a separate data set.
Assay [10] has as its target T1, GST-hVEGF121. Nature of the assay: competition ELISA, coated GST-hVEGF, competitor Fc-VEGFR2. The source holds these as a separate data set.
For assay [11], the target named is T2, Recombinant human bFGF. The assay can be described thus: ELISA, coated human bFGF. The source holds these as a separate data set.
Assay [12] has as its target T2, Recombinant human bFGF. Nature of the assay: competition ELISA, coated bFGF, competitor Fc-FGFR1. The source holds these as a separate data set.

T2 sequence (P09038 143-288 limits assumed): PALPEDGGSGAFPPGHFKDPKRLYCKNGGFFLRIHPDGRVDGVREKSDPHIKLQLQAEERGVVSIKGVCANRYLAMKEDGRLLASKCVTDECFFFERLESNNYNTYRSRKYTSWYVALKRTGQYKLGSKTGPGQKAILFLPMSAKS
VEGF (soluble stimulus added to cell cultures), sequence (P15692 whole entry): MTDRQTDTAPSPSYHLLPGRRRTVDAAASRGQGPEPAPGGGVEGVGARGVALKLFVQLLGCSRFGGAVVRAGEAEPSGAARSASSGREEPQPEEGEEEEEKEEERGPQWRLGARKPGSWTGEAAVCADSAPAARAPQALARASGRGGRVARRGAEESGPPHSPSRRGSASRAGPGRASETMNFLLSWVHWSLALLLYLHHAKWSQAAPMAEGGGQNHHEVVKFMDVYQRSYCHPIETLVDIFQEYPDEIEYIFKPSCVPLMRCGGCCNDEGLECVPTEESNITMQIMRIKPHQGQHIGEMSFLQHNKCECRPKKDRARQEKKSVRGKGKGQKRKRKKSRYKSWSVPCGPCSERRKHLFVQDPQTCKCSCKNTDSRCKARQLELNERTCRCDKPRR

B1: Nb-FV1 (bispecific antibody)
chain: QVQLVESGGGLVQPGGSLRLSCAASGTEDGRLLTLGGSWFRQAPGQGLEAVAAIGAGDRGGATYYADSVKGRFTISRDNSKNTLYLQMNSLRAEDTAVYYCTALYERQPQLAATKVARKWGQGTLVTVSSAHHSEDPSSKAPKAPAQVQLVESGGGLVQPGGSLRLSCAASGNSAEDRLYNSYTWFRQAPGQGLEAVAAISSHFSAGLTYYADSVKGRFTISRDNSKNTLYLQMNSLRAEDTAVYYCEITSHASHNDAWSTPRTVWGQGTLVTVSSAAAGSEQKLISEEDLNSHHHHHH
notes: Bispecific tandem VHH (bFGF and VEGF); with c-myc and histidine tag
Take B1: the “IC50, proliferation of HDMEC cells +VEGF (5 ng/ml)” value in assay [1] is 0.129 µM. The “IC50, proliferation of HDMEC cells +bFGF (10 ng/ml)” value in [2] was 0.122 µM. Further, in [3], the “PD1 expression (%) in CD8+ cells treated with VEGF, VHH 1 µg/mL” value is 63%; the “PD1 expression (%) in CD8+ cells treated with VEGF, VHH 5 µg/mL” value turned out to be 55%; the “PD1 expression (%) in CD8+ cells treated with VEGF, VHH 10 µg/mL” value was 40%. In assay [4], the “CD86 (MFI) on dendritic cells +VEGF +LPS, VHH 1 µg/mL” value was found to be 2030 MFI; the “CD86 (MFI) on dendritic cells +VEGF +LPS, VHH 5 µg/mL” value stood at 3200 MFI; the “CD86 (MFI) on dendritic cells +VEGF +LPS, VHH 10 µg/mL” value was found to be 17500 MFI; the “MHCII (MFI) on dendritic cells +VEGF +LPS, VHH 1 µg/mL” value came out at 4980 MFI. Besides, in [4], the “MHCII (MFI) on dendritic cells +VEGF +LPS, VHH 5 µg/mL” value came out at 6000 MFI and the “MHCII (MFI) on dendritic cells +VEGF +LPS, VHH 10 µg/mL” value is 17500 MFI. In addition, the response with GST-hVEGF121 [5] was half-maximal at 0.00459 µM (EC50). For the same molecule, in the assay with Recombinant human bFGF [6], the EC50 was 0.0115 µM. Moreover, in the assay with Recombinant human bFGF [7], the IC50 was 0.131 µM. Moreover, the IC50 in the assay with GST-hVEGF121 [8] turned out to be 0.0283 µM.

B2: Nb-VV6\cmycH6 (VHH)
chain: QVQLVESGGGLVQPGGSLRLSCAASGNSAEDRLYNSYTWFRQAPGQGLEAVAAISSHFSAGLTYYADSVKGRFTISRDNSKNTLYLQMNSLRAEDTAVYYCEITSHASHNDAWSTPRTVWGQGTLVTVSSAHHSEDPSSKAPKAPAQVQLVESGGGLVQPGGSLRLSCAASGNSAQDRLYNSYTWFRQAPGQGLEAVAAISSHFSAGLTYYADSVKGRFTISRDNSKNTLYLQMNSLRAEDTAVYYCEITSHASHNDAWSTPRTVWGQGTLVTVSS
notes: Nb-VV6 without c-myc tracer peptide and histidine tag
In the assay with GST-hVEGF121 [9], B2 had an EC50 of 0.00178 µM. Further, the IC50 with GST-hVEGF121 [10] amounted to 0.00523 µM.

B3: Nb-FV1\cmycH6 (bispecific antibody)
chain: QVQLVESGGGLVQPGGSLRLSCAASGTEDGRLLTLGGSWFRQAPGQGLEAVAAIGAGDRGGATYYADSVKGRFTISRDNSKNTLYLQMNSLRAEDTAVYYCTALYERQPQLAATKVARKWGQGTLVTVSSAHHSEDPSSKAPKAPAQVQLVESGGGLVQPGGSLRLSCAASGNSAEDRLYNSYTWFRQAPGQGLEAVAAISSHFSAGLTYYADSVKGRFTISRDNSKNTLYLQMNSLRAEDTAVYYCEITSHASHNDAWSTPRTVWGQGTLVTVSS
notes: Nb-FV1 without c-myc tracer peptide and histidine tag
B3: the EC50 with GST-hVEGF121 [9] amounted to 0.00456 µM; in the assay with Recombinant human bFGF [11], 0.0118 µM. In addition, the half-maximal inhibitory concentration (IC50) with Recombinant human bFGF [12] was 0.132 µM; with GST-hVEGF121 [10], 0.0286 µM.

B4: Nb-VF3\cmycH6 (bispecific antibody)
chain: QVQLVESGGGLVQPGGSLRLSCAASGNSAEDRLYNSYTWFRQAPGQGLEAVAAISSHFSAGLTYYADSVKGRFTISRDNSKNTLYLQMNSLRAEDTAVYYCEITSHASHNDAWSTPRTVWGQGTLVTVSSAHHSEDPSSKAPKAPAQVQLVESGGGLVQPGGSLRLSCAASGTEDGRLLTLGGSWFRQAPGQGLEAVAAIGAGDRGGATYYADSVKGRFTISRDNSKNTLYLQMNSLRAEDTAVYYCTALYERQPQLAATKVARKWGQGTLVTVSS
notes: Nb-VF3 without c-myc tracer peptide and histidine tag
As for B4, the results for the EC50 with GST-hVEGF121 [9] and with Recombinant human bFGF [11] were 0.00484 µM and 0.0115 µM, respectively. Moreover, the concentration for half-maximal inhibition (IC50) in the assay with Recombinant human bFGF [12] worked out at 0.137 µM; with GST-hVEGF121 [10], 0.0284 µM.

B5: Nb-VF3 (bispecific antibody)
chain: QVQLVESGGGLVQPGGSLRLSCAASGNSAEDRLYNSYTWFRQAPGQGLEAVAAISSHFSAGLTYYADSVKGRFTISRDNSKNTLYLQMNSLRAEDTAVYYCEITSHASHNDAWSTPRTVWGQGTLVTVSSAHHSEDPSSKAPKAPAQVQLVESGGGLVQPGGSLRLSCAASGTEDGRLLTLGGSWFRQAPGQGLEAVAAIGAGDRGGATYYADSVKGRFTISRDNSKNTLYLQMNSLRAEDTAVYYCTALYERQPQLAATKVARKWGQGTLVTVSSAAAGSEQKLISEEDLNSHHHHHH
notes: Bispecific tandem VHH (VEGF and bFGF); with c-myc and histidine tag
On to B5, for which, in assay [1], the “IC50, proliferation of HDMEC cells +VEGF (5 ng/ml)” value amounted to 0.132 µM. The “IC50, proliferation of HDMEC cells +bFGF (10 ng/ml)” value in assay [2] is 0.12 µM. For the same molecule, the EC50 stood at 0.00449 µM with GST-hVEGF121 [5] and 0.0113 µM with Recombinant human bFGF [6]. In addition, the IC50 with Recombinant human bFGF [7] was 0.136 µM; with GST-hVEGF121 [8], 0.0285 µM.

B6: Nb-FF2\cmycH6 (VHH)
chain: QVQLVESGGGLVQPGGSLRLSCAASGTEDGRLLTLGGSWFRQAPGQGLEAVAAIGAGDRGGATYYADSVKGRFTISRDNSKNTLYLQMNSLRAEDTAVYYCTALYERQPQLAATKVARKWGQGTLVTVSSAHHSEDPSSKAPKAPAQVQLVESGGGLVQPGGSLRLSCAASGTEDGRLLTLGGSWFRQAPGQGLEAVAAIGAGDRGGATYYADSVKGRFTISRDNSKNTLYLQMNSLRAEDTAVYYCTALYERQPQLAATKVARKWGQGTLVTVSS
notes: Nb-FF2 without c-myc tracer peptide and histidine tag
Regarding B6, the EC50 with Recombinant human bFGF [11] worked out at 0.00598 µM. In the assay with Recombinant human bFGF [12], the IC50 is 0.0537 µM.

B7: Nb-V1\cmycH6 (VHH)
VHH: QVQLVESGGGLVQPGGSLRLSCAASGNSAEDRLYNSYTWFRQAPGQGLEAVAAISSHFSAGLTYYADSVKGRFTISRDNSKNTLYLQMNSLRAEDTAVYYCEITSHASHNDAWSTPRTVWGQGTLVTVSS
notes: Nb-V1 without c-myc tracer peptide and histidine tag
For the molecule B7, the EC50 with GST-hVEGF121 [9] turned out to be 0.00464 µM. Further, the IC50 with GST-hVEGF121 [10] amounted to 0.0286 µM.

B8: Nb-F3\cmycH6 (VHH)
VHH: QVQLVESGGGLVQPGGSLRLSCAASGTEDGRLLTLGGSWFRQAPGQGLEAVAAIGAGDRGGATYYADSVKGRFTISRDNSKNTLYLQMNSLRAEDTAVYYCTALYERQPQLAATKVARKWGQGTLVTVSS
notes: Nb-F3 without c-myc tracer peptide and histidine tag
B8: the EC50 with Recombinant human bFGF [11] is 0.0115 µM. In addition, in the assay with Recombinant human bFGF [12], the IC50 was 0.134 µM.
